Measurements from patent US20130079278A1 (Novo Nordisk, published 2013).
*1 amine or outer side, *2 acyl side, *3 side chain or, on linkers, in order; H or OH if unused. Where no end group is shown, it is not given here. Side-chain parts run from the residue outwards. The star is where a group is joined. C18 diacid = O=C(O)CCCCCCCCCCCCCCCCC(=O)*; γGlu = O=C(O)[C@H](CCC(=O)[*:2])N[*:1]; C14 diacid = O=C(O)CCCCCCCCCCCCC(=O)*; AEEA = NCCOCCOCC(=O)O

B1: N^ε24-[(4S)-4-carboxy-4-[[(4S)-4-carboxy-4-[[2-[2-[2-[[2-[2-[2-[[(4S)-4-carboxy-4-(17-carboxyheptadecanoylamino)butanoyl]amino]ethoxy]ethoxy]acetyl]amino]ethoxy … (peptide)
peptide: HSQGTFTSDYSRYLESRRAQDFVK([γGlu-γGlu-AEEA-AEEA-γGlu-C18 diacid])WLLST
modifications: not fully specified; printed as Nε24-[(4S)-4-carboxy-4-[[(4S)-4-carboxy-4-[[2-[2-[2-[[2-[2-[2-[[(4S)-4-carboxy-4-(17-carboxyheptadecanoylamino)butanoyl]amino]ethoxy]ethoxy]acetyl]amino]ethoxy]ethoxy]acetyl]amino]butanoyl]amino]butanoyl]-[Arg12,Glu15,Lys24,Leu27,Ser25]-Glucagon

Molecular target: glucagon receptor (human, UniProt P47871 26-477)
Test: cell-based or functional assay

glucagon receptor, sequence (P47871 26-477): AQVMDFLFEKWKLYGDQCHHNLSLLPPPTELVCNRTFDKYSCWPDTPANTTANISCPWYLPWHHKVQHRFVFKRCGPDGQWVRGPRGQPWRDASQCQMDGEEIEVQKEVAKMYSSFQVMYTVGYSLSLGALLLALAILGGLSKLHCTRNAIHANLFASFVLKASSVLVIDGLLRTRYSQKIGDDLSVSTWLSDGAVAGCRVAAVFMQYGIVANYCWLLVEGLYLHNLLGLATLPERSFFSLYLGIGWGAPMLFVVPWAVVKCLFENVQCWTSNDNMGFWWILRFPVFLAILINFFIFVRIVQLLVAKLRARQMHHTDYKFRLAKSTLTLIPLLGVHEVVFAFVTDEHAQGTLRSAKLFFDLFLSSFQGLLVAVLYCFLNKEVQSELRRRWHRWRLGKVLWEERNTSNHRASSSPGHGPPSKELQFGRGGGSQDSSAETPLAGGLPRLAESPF

Assay (I) Glucagon [EC50] [nM] | Binder
1.67 | HSQGTFTSDYSRYLDLRRAQDFVK([γGlu-γGlu-AEEA-AEEA-γGlu-C18 diacid])WLLIT
0.255 | HSQGTFTSDYSRYLDLRRAQDFVK([γGlu-γGlu-AEEA-AEEA-γGlu-C18 diacid])WLLST
0.129 | HSHGTFTSDYSKYLDSRRAQDFVK([γGlu-γGlu-AEEA-AEEA-γGlu-C18 diacid])WLLST
0.006 | HSQGTFTSDYSRYLDLRRAQDFVK([γGlu-γGlu-AEEA-AEEA-γGlu-C14 diacid])WLLST
1.32 | HSQGTFTSDYSRYLDVRRAQDFVK([γGlu-γGlu-AEEA-AEEA-γGlu-C18 diacid])WLLST
0.748 | B1
0.031 | HSQGTFTSDYSRYLDTRRAQDFVK([γGlu-γGlu-AEEA-AEEA-γGlu-C18 diacid])WLLNT
0.28 | HSQGTFTSDYSKYLESRRAQDFVK([γGlu-γGlu-AEEA-γGlu-C18 diacid])WLLST
0.084 | HSQGTFTSDYSKYLDIRRAQDFVK([γGlu-γGlu-AEEA-AEEA-γGlu-C18 diacid])WLLST
1.04 | HSQGTFTSDYSRYLDIRRAQDFVK([γGlu-γGlu-AEEA-AEEA-γGlu-C18 diacid])WLLST
0.355 | HSQGTFTSDYSRYLDRRRAQDFVK([γGlu-γGlu-AEEA-AEEA-γGlu-C18 diacid])WLLST
0.297 | HSQGTFTSDYSRYLDTRRAQDFVK([γGlu-γGlu-AEEA-AEEA-γGlu-C18 diacid])WLLST
0.158 | HSQGTFTSDYSRYLDARRAQDFVK([γGlu-γGlu-AEEA-AEEA-γGlu-C18 diacid])WLLST
0.754 | HSQGTFTSDYSRYLDLRRAQDFVK([γGlu-γGlu-AEEA-AEEA-γGlu-C18 diacid])WLLTT
1.64 | HSQGTFTSDYSRYLDFRRAQDFVK([γGlu-γGlu-AEEA-AEEA-γGlu-C18 diacid])WLLST
0.075 | HSQGTFTSDYSKYLDTRRAQDFVK([γGlu-γGlu-AEEA-AEEA-γGlu-C18 diacid])WLLST
